Test results: US20150132307A1 (Hoffmann-La Roche, published 2015)

T1: Mouse soluble TWEAK (untagged, Example 5) (mouse, UniProt O54907 105-249, limits assumed)
T1 construct: also called Murine TWEAK
T1 sequence: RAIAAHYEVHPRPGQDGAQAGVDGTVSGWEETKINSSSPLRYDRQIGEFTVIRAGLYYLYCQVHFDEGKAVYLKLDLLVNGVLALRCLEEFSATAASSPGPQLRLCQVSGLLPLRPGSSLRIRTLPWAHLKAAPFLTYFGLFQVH

T2: Human recombinant soluble TWEAK (Example 6) (human, UniProt O43508 99-249, limits assumed)
T2 sequence: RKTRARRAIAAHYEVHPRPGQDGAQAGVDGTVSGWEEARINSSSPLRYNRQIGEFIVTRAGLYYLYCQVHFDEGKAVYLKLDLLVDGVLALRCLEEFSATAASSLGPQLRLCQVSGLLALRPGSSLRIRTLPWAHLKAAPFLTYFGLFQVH

T3: human Flag-tagged soluble TWEAK (amino acids 106-249) (human, UniProt O43508 106-249)
T3 construct: The sentence gives amino acids 106-249 without naming the entry; also called Human TWEAK; not shown: Flag tag
T3 sequence: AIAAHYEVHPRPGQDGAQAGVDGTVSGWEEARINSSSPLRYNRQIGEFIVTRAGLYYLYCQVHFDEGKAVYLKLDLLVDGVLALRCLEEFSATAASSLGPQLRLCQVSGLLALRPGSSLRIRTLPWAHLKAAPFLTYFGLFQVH

T4: Biotinylated human soluble TWEAK (amino acids 99-249 of SEQ ID NO: 68) (human, UniProt O43508 99-249, biotinylated)
T4 construct: also called Human TWEAK
T4 sequence: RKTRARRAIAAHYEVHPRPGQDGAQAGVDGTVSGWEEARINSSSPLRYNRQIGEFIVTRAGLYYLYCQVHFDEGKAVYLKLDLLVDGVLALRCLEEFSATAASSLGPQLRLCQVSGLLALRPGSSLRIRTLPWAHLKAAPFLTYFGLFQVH

T5: Recombinant human TWEAK (R&D Systems; Cat. #1090-TW/CF) (human, UniProt O43508 97-249, limits assumed)
T5 sequence: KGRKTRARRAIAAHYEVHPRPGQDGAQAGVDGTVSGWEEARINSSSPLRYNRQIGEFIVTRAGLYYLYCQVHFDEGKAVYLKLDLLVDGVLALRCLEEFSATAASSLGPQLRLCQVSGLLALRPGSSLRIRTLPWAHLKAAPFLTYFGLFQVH

T6: IL-17 F/F (human, UniProt Q96PD4 31-163)
T6 construct: read as the homodimer of IL17F
T6 sequence: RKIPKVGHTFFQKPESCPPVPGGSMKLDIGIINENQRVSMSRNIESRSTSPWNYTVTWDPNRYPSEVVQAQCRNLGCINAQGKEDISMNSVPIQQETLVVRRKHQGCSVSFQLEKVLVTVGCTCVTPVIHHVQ


Legend:
[1] = target: T1, Mouse soluble TWEAK (untagged, Example …); experiment: receptor interaction ELISA: mouse soluble TWEAK 4 ng/ml preincubated with antibody, then on coated mouse Fn14:Fc (competitor m22)
Method: Briefly, Maxisorp plates were coated with mouse Fn14:Fc (extracellular domain of mouse Fn14 (amino acids 1-75 of SEQ ID NO: 98) fused to Fc portion of human IgG1) as described above for human Fn14:Fc, followed by blocking and washing. […] After 1 h of incubation at room temperature and four washes, biotinylated anti-mouse TWEAK antibody at 125 ng/ml in blocking buffer was added for 1 h at room temperature, followed by another four wash steps. The TWEAK antibody was detected by incubation with streptavidin-HRP, diluted 1:5000 in blocking buffer, for 30 minutes at room temperature. Signal was developed and absorbance measured as described above.

[2] = target: T2, Human recombinant soluble TWEAK …; experiment: cell-based or functional assay
[3] = target: T3, human Flag-tagged soluble TWEAK (amino …); experiment: receptor interaction ELISA: Flag-TWEAK 2.5 ng/ml preincubated with antibody, then on coated human Fn14:Fc (competitor m21)
Method: 96-well Maxisorp® plates (Nunc) were coated with 100 μl 1 μg/ml human Fn14:Fc (extracellular domain of human Fn14 (amino acids 1-75 of SEQ ID NO: 98) fused to Fc portion of human IgG1) in PBS per well for 1.5 h at room temperature and blocked with a solution of 5% FBS in PBS for 30 minutes at room temperature under shaking. […] After washing the Fn14-coated plate once with wash buffer (0.1% Tween® 20 in PBS), 100 μl of the TWEAK-antibody solution were transferred to each well and the plate was incubated for 1 h at room temperature, followed by four washes with wash buffer. Wells were filled with 100 μl of anti-FLAG-HRP detection antibody, diluted 1:5000 in blocking buffer, and incubated for 1 h at room temperature. After four more wash steps, the signal was developed by addition of 100 μl 3,3,5,5-Tetramethylbenzidine (TMB) solution for approximately ten minutes. The reaction was stopped by adding 100 μl of 1 N HCl, and absorbance measured at 450 nm (reference wavelength 620 nm).

[4] = target: T4, Biotinylated human soluble TWEAK (amino …); experiment: SPR (Biacore 2000), biotinylated soluble TWEAK on streptavidin chip, antibody 100 nM as analyte, 25 C
Method: A Biacore 2000 instrument was used with a Biacore streptavidin coated sensor mounted into the system. The system buffer HBS-ET (10 mM HEPES pH 7.4, 150 mM NaCl, 1 mM EDTA, 0.05% Tween® 20) was used at a flow rate of 100 μl/min. The sample buffer was the system buffer. Biotinylated human soluble TWEAK (amino acids 99-249 of SEQ ID NO: 68) and biotinylated murine soluble TWEAK (amino acids 81-225 of SEQ ID NO: 69) was immobilized on different flow cells on the SA sensor at 150 RU each. The flow cell FC1 was used as a blank reference cell. Each antibody was injected into the system as an analyte at 100 nM at 100 μl/min for 2 min association time. The dissociation of the immunecomplexes were monitored for 5 min. The sensor surface was washed with HBS-ET for 10 seconds and regenerated using 2×2 minutes injections with 10 mM glycine pH 2.25. This procedure was done at 25° C. The kinetically rate limiting step of the complex dissociation phase in the interval [240 s-300 s] was taken to calculate the dissociation rate kd [1/s] (Biacore Evaluation Software 4.0). According to the equation t1/2 diss=ln(2)/(60×kd), the half-life of the immunocomplexes in minutes was calculated.

[5] = target: T5, Recombinant human TWEAK (R&D Systems; …); experiment: cell-based or functional assay
[6] = target: recombinant human IL-17 (Peprotech #200-17) (human, UniProt Q16552 20-155); experiment: cell-based or functional assay
[7] = target: human IL17A/A (human, UniProt Q16552 24-155, limits assumed); experiment: SPR (BIAcore T100), antibody captured by anti-human F(ab')2, IL17 as analyte, 25 C, apparent KD, 1:1 model
Method: (§1) Around 12000 resonance units (RU) of the capturing system (10 μg/ml goat anti human F(ab′)2; Order Code: 28958325; GE Healthcare Bio-Sciences AB, Schweden) were coupled on a CMS chip at pH 5.0 by using an amine coupling kit supplied by the GE Healthcare. The sample and system buffer was PBS-T (10 mM phosphate buffered saline including 0.05% Tween20) pH 7.4. The bispecific antibody was captured by injecting a 50 nM solution for 1 min at a flow of 10 μl/min. Association was measured by injection human IL17 in various concentrations in solution for 3 min at a flow of 30 μl/min starting with 50 nM in 1:1 dilutions. The dissociation phase was monitored for up to 5 min and triggered by switching from the sample solution to running buffer. The surface was regenerated by two times 60 sec. washing with a glycin pH 2.1 solution at a flow rate of 30 μl/min. Bulk refractive index differences were corrected by subtracting the response obtained from a goat anti human F(ab′)2 surface. Blank injections are also subtracted (=double referencing). For calculation of apparent KD and other kinetic parameters the Langmuir 1:1 model was used.

[8] = target: T7, IL-17 A/F (human, UniProt Q16552 24-155; Q96PD4 31-163); experiment: SPR (BIAcore T100), antibody captured by anti-human F(ab')2, IL17 as analyte, 25 C, 1:1 model
T7 construct: read as the heterodimer of IL17A and IL17F
Method: as §1

[9] = target: T6, IL-17 F/F; experiment: SPR (BIAcore T100), antibody captured by anti-human F(ab')2, IL17 as analyte, 25 C
Method: as §1

Chain of recombinant human IL-17 (Peprotech #200-17) (Q16552 20-155 limits assumed): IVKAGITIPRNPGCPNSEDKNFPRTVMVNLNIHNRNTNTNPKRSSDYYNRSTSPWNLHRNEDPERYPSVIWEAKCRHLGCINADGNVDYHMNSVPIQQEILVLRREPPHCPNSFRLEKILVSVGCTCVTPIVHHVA
Chain of human IL17A/A (Q16552 24-155 limits assumed): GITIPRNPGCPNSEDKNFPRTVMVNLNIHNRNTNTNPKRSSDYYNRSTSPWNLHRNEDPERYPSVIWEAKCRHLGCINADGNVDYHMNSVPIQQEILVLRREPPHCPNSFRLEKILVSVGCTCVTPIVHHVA
T7 sequence (Q16552 24-155 limits assumed, one chain of several): as the sequence (Q16552 24-155 limits assumed) above

| Binder | IC50 [1] [ng/mL] | Inhibition of IL-8 Secretion IC50 [ng/ml] (A375 cells) [2] [ng/mL] | IC50 [3] [ng/mL] | t/2 diss [min] 25° C. [4] [min] | IC50 (nM) per valency, Tweak induced HFLS proliferation (CellTiter Glo) [5] [nM] | other results |
| --- | --- | --- | --- | --- | --- | --- |
| <TWEAK> 304 (rabbit) (antibody, V domains shown, Rabbit parent antibody) VH: QSLEESGGDLVKPGASLTLTCKASGFSFSSTYYMCWVRQAPGKGLEWIGCIYVGSSGAPYYASWAKGRFTISKTSSTTVALQMTSLTPADTATYVCTRSVHFGDLWGPGTLVTVSS VL: DVVMTQTPSPVSAAVGGTVTIKCQASQSIGNDLSWYQQKPGQRPKLLIYSVSTLASGVPSRFKGSGSGTEYSLTISDVQCADAATYYCQCIDYGNNYVGNTFGGGTEVVVK | 3.6 | 109 | 2.8 | – | – | – |
| <TWEAK> 304chi (antibody, human IgG1, kappa, V domains shown, Chimer: rabbit variable domains with human kappa and human IgG1 constant regions) VH: QSLEESGGDLVKPGASLTLTCKASGFSFSSTYYMCWVRQAPGKGLEWIGCIYVGSSGAPYYASWAKGRFTISKTSSTTVALQMTSLTPADTATYVCTRSVHFGDLWGPGTLVTVSS VL: DVVMTQTPSPVSAAVGGTVTIKCQASQSIGNDLSWYQQKPGQRPKLLIYSVSTLASGVPSRFKGSGSGTEYSLTISDVQCADAATYYCQCIDYGNNYVGNTFGGGTEVVVKR | – | 122 | 2.6 | 37 | – | – |
| <TWEAK> 301 (rabbit) (antibody, V domains shown, Rabbit parent antibody; purified antibody or hybridoma supernatant was used) VH: QSLEESGGGLVKPGASLTLTCTASGFTFNANYWICWVRQAPGKGLEWIACIYGGGNSGAYYASWATGRFTISRTSSTTVTLQMTSLTAADTATYFCARGPISRDLWGPGTLVTVSL VL: DVVMTQTPASVSEPVGGTVTIKCQASQSIYSSLAWYQQKPGQPPKLLIYDAFDLASGVSSRFTGSGSGTQFTLTISDLECADAATYYCQSTDYGNSWDGNPFGGGTEVVVT | 4.7 | 128 | 3.4 | – | – | – |
| Bispecific <Tweak-IL-17> #5 antibody (bispecific antibody, human IgG1, kappa) heavy: not shown light: DIQMTQSPSSVSASVGDRVTITCQASQNIYSNLAWYQQKPGKAPKLLIYTASYLASGVPSRFSGSGSGTDYTLTISSLQPEDFATYYCQTAYYNSRPDTVAFGGGTKVEIKRTVAAPSVFIFPPSDEQLKSGTASVVCLLNNFYPREAKVQWKVDNALQSGNSQESVTEQDSKDSTYSLSSTLTLSKADYEKHKVYACEVTHQGLSSPVTKSFNRGEC | – | – | – | – | 0.152 | IL-6 IC50 [nM] per valency (IL-17 induced cytokine production, HFLS-RA) [6]: 1.32 nM; IL-8 IC50 [nM] per valency (IL-17 induced cytokine production, HFLS-RA) [6]: 1.12 nM |
| Bispecific <Tweak-IL-17> #2 antibody (bispecific antibody, human IgG1, kappa, Bivalent CrossMab (CH1-CL exchanged, WO 2009/080253), IgG1 knobs-into-holes) heavy 1: not shown heavy 2: not shown light 1: DIVMTQSPLSLPVTPGEPASISCRSSQSLVHSNGDTYFHWYLQKPGQSPQLLIYKVSNRFSGVPDRFSGSGSGTDFTLKISRVEAEDVGVYYCSQTTHAPFTFGQGTKLEIKRTVAAPSVFIFPPSDEQLKSGTASVVCLLNNFYPREAKVQWKVDNALQSGNSQESVTEQDSKDSTYSLSSTLTLSKADYEKHKVYACEVTHQGLSSPVTKSFNRGEC light 2: DIQMTQSPSSVSASVGDRVTITCQASQNIYSNLAWYQQKPGKAPKLLIYTASYLASGVPSRFSGSGSGTDYTLTISSLQPEDFATYYCQTAYYNSRPDTVAFGGGTKVEIKSSASTKGPSVFPLAPSSKSTSGGTAALGCLVKDYFPEPVTVSWNSGALTSGVHTFPAVLQSSGLYSLSSVVTVPSSSLGTQTYICNVNHKPSNTKVDKKVEPKSC | – | – | – | – | 0.065 | Kd [7]: 0.15 nM; Kd [8]: 0.25 nM; binding result [9]: no binding (tested: IL17 injected starting with 50 nM) |
| <TWEAK> 305chi (antibody, human IgG1, kappa, V domains shown, Chimer: rabbit variable domains with human kappa and human IgG1 constant regions) VH: QEQLVESGGGLVQPGGSLTLSCKASGFDFSTYYMSWVRQAPGKGLEWIGTVYVRQGTTYYASWLNGRFTISSDNAQNTVDLKMNSLTAADTATYFCAKGGYNYDDAFVIWGPGTLVTVSF VL: AIEMTQTPFSVSAAVGGTVTINCQASQNIYSNLAWYQQKPGQPPKLLMYTASYLASGVPSRFKGSGSRTEYTLTISGVQCADAATYYCQTAYYNSRPDTVAFGGGTEVVVKR | – | 104 | 2.6 | 147 | – | – |
